Assay results as given in PMC10415149, “The role of catalytic and regulatory domains of human PrimPol in DNA binding and synthesis”.

How the values were obtained:
PrimPol363-560 (CTD) = molecular target: T1, PrimPol363-560 (CTD) (Homo sapiens, UniProt Q96LW4 363-560); assay: EMSA; 1 mM Mn2+, 1-3 uM protein; EMSA: 40 mM HEPES pH 7.0, 50 mM KCl, 1 mM DTT, 5% glycerol, 0.1 mg/ml BSA, 1 mM MnCl2, 300 nM DNA, 24 C 20 min then ice (RPA assays: 50 nM DNA, 25 nM RPA, 8 C); 5% native PAGE, 0.5x Tris-glycine pH 8.3, 4 C; conditions: protein: recombinant; tags: N-terminal SUMO-HIS10; label: 5' Cy5
T1 sequence: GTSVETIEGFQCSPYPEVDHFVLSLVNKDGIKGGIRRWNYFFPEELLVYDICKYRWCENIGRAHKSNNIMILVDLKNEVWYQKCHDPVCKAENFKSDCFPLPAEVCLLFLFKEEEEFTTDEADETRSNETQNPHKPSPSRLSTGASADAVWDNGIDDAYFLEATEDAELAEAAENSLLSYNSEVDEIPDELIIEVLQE

PrimPol1-363 (NTD) = molecular target: T2, PrimPol1-363 (NTD) (Homo sapiens, UniProt Q96LW4 1-363); assay: as above; conditions: protein: recombinant; tags: N-terminal SUMO-HIS10; label: 5' Cy5
T2 sequence: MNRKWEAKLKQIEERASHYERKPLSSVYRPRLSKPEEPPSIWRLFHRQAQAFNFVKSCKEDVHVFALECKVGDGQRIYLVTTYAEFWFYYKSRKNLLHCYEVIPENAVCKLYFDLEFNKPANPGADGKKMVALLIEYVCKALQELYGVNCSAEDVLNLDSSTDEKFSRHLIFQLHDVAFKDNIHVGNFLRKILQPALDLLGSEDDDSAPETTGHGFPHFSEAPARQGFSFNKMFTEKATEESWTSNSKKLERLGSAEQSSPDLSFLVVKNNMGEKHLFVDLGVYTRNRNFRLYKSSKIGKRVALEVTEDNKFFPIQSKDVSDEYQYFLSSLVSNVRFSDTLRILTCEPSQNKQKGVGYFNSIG

[1] = molecular target: T3, PrimPol1-363 (NTD);PrimPol363-560 (CTD) (Homo sapiens;Homo sapiens, UniProt Q96LW4;Q96LW4 1-363;363-560, |); assay: EMSA; 1 mM Mn2+; separate NTD and CTD mixed; EMSA: 40 mM HEPES pH 7.0, 50 mM KCl, 1 mM DTT, 5% glycerol, 0.1 mg/ml BSA, 1 mM MnCl2, 300 nM DNA, 24 C 20 min then ice (RPA assays: 50 nM DNA, 25 nM RPA, 8 C); 5% native PAGE, 0.5x Tris-glycine pH 8.3, 4 C; conditions: protein: recombinant;recombinant, tags: N-terminal SUMO-HIS10;N-terminal SUMO-HIS10, copies: 1;1
T3 sequence 1: T2 sequence
T3 sequence 2: T1 sequence

PrimPol WT [2] = molecular target: T4, PrimPol WT (Homo sapiens, UniProt Q96LW4 1-560); assay: EMSA; 1 mM Mn2+; EMSA: 40 mM HEPES pH 7.0, 50 mM KCl, 1 mM DTT, 5% glycerol, 0.1 mg/ml BSA, 1 mM MnCl2, 300 nM DNA, 24 C 20 min then ice (RPA assays: 50 nM DNA, 25 nM RPA, 8 C); 5% native PAGE, 0.5x Tris-glycine pH 8.3, 4 C; conditions: protein: recombinant; tags: N-terminal SUMO-HIS10; label: Cy5 at 5' of template; template 5' overhang 1 nt, 3' overhang 11 nt
T4 sequence: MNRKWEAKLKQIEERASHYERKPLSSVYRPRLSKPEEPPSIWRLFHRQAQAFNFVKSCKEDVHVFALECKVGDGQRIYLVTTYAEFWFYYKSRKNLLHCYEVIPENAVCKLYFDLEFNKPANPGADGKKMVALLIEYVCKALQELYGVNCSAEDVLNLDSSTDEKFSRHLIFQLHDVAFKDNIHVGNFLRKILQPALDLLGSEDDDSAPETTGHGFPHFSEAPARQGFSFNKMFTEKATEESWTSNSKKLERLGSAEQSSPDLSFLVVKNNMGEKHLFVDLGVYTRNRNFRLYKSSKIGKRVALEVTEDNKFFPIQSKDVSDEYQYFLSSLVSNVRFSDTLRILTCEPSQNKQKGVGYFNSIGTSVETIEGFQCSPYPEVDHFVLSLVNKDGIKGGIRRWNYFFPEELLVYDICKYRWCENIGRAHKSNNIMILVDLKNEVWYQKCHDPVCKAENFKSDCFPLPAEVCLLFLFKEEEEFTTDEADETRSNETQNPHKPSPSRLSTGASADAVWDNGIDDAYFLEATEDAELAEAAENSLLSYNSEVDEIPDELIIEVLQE

[3] = molecular target: T5, PrimPol1-475 (RBM deleted) (Homo sapiens, UniProt Q96LW4 1-475); assay: as above; conditions: protein: recombinant; tags: N-terminal SUMO-HIS10; label: Cy5 at 5' of template; template 5' overhang 1 nt, 3' overhang 11 nt
T5 sequence: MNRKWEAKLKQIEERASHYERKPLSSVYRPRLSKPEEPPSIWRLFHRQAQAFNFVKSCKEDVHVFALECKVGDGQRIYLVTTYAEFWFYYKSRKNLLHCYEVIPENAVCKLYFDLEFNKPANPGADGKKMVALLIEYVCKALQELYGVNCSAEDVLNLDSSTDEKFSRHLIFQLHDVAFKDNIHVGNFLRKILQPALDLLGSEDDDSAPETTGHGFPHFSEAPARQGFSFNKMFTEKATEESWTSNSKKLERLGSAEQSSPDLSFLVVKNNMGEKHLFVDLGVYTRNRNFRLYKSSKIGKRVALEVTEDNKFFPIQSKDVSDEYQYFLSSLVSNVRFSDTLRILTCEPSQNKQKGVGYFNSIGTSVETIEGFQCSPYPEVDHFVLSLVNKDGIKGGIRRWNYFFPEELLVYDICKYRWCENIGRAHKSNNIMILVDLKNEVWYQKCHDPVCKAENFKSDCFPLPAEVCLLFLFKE

PrimPol WT;RPA = PrimPol WT;RPA (Homo sapiens;Homo sapiens, UniProt Q96LW4;P27694;P15927;P35244 1-560;1-616;1-270;1-121, |); assay: EMSA; PrimPol added to preformed RPA:DNA; 1 mM Mn2+, ATP, dNTPs, 8 C; EMSA: 40 mM HEPES pH 7.0, 50 mM KCl, 1 mM DTT, 5% glycerol, 0.1 mg/ml BSA, 1 mM MnCl2, 300 nM DNA, 24 C 20 min then ice (RPA assays: 50 nM DNA, 25 nM RPA, 8 C); 5% native PAGE, 0.5x Tris-glycine pH 8.3, 4 C; conditions: protein: recombinant;recombinant; tags: N-terminal SUMO-HIS10;; copies: 1;1;1;1; label: 32P
PrimPol WT [4] = molecular target: T4, PrimPol WT; assay: EMSA; 1 mM Mn2+, 1 mM ATP, 200 uM dNTPs, 8 C; EMSA: 40 mM HEPES pH 7.0, 50 mM KCl, 1 mM DTT, 5% glycerol, 0.1 mg/ml BSA, 1 mM MnCl2, 300 nM DNA, 24 C 20 min then ice (RPA assays: 50 nM DNA, 25 nM RPA, 8 C); 5% native PAGE, 0.5x Tris-glycine pH 8.3, 4 C; conditions: protein: recombinant; tags: N-terminal SUMO-HIS10; label: 32P
[5] = molecular target: T5, PrimPol1-475 (RBM deleted); assay: as above; conditions: protein: recombinant; tags: N-terminal SUMO-HIS10; label: 32P

PrimPol WT;RPA, sequence (P27694 whole entry, chain 2 of 3): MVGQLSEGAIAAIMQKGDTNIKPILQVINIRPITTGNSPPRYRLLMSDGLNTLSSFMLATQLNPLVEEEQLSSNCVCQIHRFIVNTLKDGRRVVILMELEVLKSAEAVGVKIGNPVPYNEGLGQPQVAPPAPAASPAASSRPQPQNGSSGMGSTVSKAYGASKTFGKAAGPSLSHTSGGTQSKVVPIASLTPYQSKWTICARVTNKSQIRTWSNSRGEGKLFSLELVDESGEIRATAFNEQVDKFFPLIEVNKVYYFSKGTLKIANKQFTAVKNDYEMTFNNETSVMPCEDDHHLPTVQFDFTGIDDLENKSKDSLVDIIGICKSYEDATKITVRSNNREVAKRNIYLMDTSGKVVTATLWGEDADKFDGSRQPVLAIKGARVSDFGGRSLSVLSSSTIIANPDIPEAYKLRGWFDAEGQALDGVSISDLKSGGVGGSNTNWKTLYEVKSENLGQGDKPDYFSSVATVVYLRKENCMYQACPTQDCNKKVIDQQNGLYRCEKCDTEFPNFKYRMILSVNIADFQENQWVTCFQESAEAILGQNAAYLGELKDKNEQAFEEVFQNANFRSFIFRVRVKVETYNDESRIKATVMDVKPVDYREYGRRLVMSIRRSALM
PrimPol WT;RPA, sequence (P15927 whole entry, chain 3 of 3): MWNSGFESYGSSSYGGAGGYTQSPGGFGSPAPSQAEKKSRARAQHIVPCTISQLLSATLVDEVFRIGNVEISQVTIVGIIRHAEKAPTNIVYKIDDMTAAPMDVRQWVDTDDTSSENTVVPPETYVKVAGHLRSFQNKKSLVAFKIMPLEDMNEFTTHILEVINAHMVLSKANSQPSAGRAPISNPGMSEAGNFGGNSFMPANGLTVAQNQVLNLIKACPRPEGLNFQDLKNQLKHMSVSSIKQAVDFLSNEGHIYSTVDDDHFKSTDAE
PrimPol WT;RPA, sequence (P35244 whole entry, chain 4 of 3): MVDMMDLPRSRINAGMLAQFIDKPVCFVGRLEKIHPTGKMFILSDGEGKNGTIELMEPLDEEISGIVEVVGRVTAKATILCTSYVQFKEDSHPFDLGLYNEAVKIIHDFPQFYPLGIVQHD

Q: Does AAAAAAAAAACCTGAAAAAAAAAA (ssDNA) [Cy5-Acctg24] bind (PrimPol363-560 (CTD))?
A: no binding

Q: Does AAAAAAAAAACCTGAAAAAAAAAA (ssDNA) [Cy5-Acctg24] bind (PrimPol1-363 (NTD))?
A: binds

Q: Does AAAAAAAAAACCTGAAAAAAAAAA (ssDNA) [Cy5-Acctg24] bind ([1]; label: 5' Cy5)?
A: no binding

B1: Template-55/Primer-18 (dsDNA)
DNA 1: GACTACATTTCATCTGGCTTGGGCTTCATCGTTGTCGCAGACCTGGTGGATACCG
DNA 2: CGGTATCCACCAGGTCTG
Q: Does B1 bind ([1]; label: 5' 32P on Primer-18, template 5' overhang 37 nt)?
A: binds

B2: p-p-p-12/Cy5-Acctg24 (mixed)
DNA 1: AAAAAAAAAACCTGAAAAAAAAAA
DNA 2: AGGTTTTTTTTT
modifications: primer 5'-triphosphate; primer nt 1 is ribo-A, rest DNA
Q: B2 was tested. Which Kd (PrimPol WT [2]) did it give?
A: 490 ± 130 nM

Q: And the Kd [3]?
A: 90 ± 10 nM

B3: Acctg55 (ssDNA)
DNA: AAAAAAAAAAAAAAAAAAAAAAAAAAAAAAAAAAAAAAAAACCTGAAAAAAAAAA
Q: Does B3 bind (PrimPol WT;RPA)?
A: binds

Q: Does B3 bind (PrimPol WT [4])?
A: binds

Q: Does B3 bind [5]?
A: binds
